The values that follow come from paper PMC12772213.

Where two headings read alike, the source gives them in different places.

One assay has as its target Pyrene-actin (rabbit) (UniProt P68135). The assay can be described thus: stopped-flow pyrene-actin fluorescence; myosin heads (apyrase-treated) mixed with equimolar pyrene-actin 10 min at RT in KMg25 buffer (60 mM MOPS pH 7, 25 mM KCl, 1 mM EGTA, 1 mM MgCl2, 1 mM DTT), then mixed with ATP; ATP-induced dissociation followed by pyrene fluorescence.
Assay [1] addresses Actin filaments (rabbit skeletal muscle actin) (rabbit) (UniProt P68135). The assay is described as follows: three-bead optical trap; unloaded; cHMM held on pedestal beads through antibody to the S2Tag, actin filament suspended between two trapped beads; 1 µM MgATP; 20 °C; 60 mM MOPS, 25 mM KCl, 1 mM DTT, 1 mM MgCl2, 1 mM EGTA; single-molecule events by bead covariance.
Assay [2] shares this target. The assay is described as follows: three-bead optical trap; unloaded; cHMM held on pedestal beads through antibody to the S2Tag, actin filament suspended between two trapped beads; 2 mM MgATP; 20 °C; 60 mM MOPS, 25 mM KCl, 1 mM DTT, 1 mM MgCl2, 1 mM EGTA; single-molecule events by bead covariance.
Assay [3] shares this target. The assay can be described thus: three-bead optical trap; isometric feedback (hindering load); detachment rate vs. force fitted to the Bell equation, interactions >10 pN excluded; cHMM held through antibody to the S2Tag; 20 °C.
Assay [4] has the same target.
The target is the same in assay [5]. The assay can be described thus: three-bead optical trap; pedestal bead stage feedback; time between single actomyosin interactions at saturating (2 mM) ATP, double-exponential distribution; cHMM held through antibody to the S2Tag; 20 °C.
Assay [6] shares this target. The assay can be described thus: three-bead optical trap; isometric feedback (hindering load); detachment rate vs. force fitted to the Bell equation, interactions >10 pN excluded; cHMM held through antibody to the S2Tag; 20 °C. The source holds these as a separate data set.

“Human β-cardiac myosin HMM M493I mutant (M493I-cHMM) (from UniProt P12883 1-1935; P05977 1-188; P97457 1-169) (complex)” returned a maximum rate of ATP-induced dissociation of actomyosin with Pyrene-actin (rabbit) of 340 s⁻¹. The substance also returned a k detach (1 μM ATP) in assay [1] of 6.26 s⁻¹. The k detach (2 mM ATP) in assay [2] was determined as 12.1 s⁻¹. For the same substance, the Bell equation k0 (detachment rate at zero force) in assay [3] stood at 12.9 s⁻¹. The Actin gliding velocity (in vitro gliding assay, cHMM held through S2Tag antibody, rhodamine-phalloidin labeled actin, 32 °C) in assay [4] was found to be 0.46 µm/s. In assay [5], the actin reattachment rate in optical trap (fast) turned out to be 23 s⁻¹ and the actin reattachment rate in optical trap (slow) stood at 1.62 s⁻¹.
The substance “Human β-cardiac myosin wild type HMM (WT-cHMM) (from UniProt P12883 1-1935; P05977 1-188; P97457 1-169) (complex)” gave a Bell equation k0 (detachment rate at zero force) in assay [6] of 32 s⁻¹. Also, in assay [1], the k detach (1 μM ATP) was 6.09 s⁻¹. In assay [2], this substance showed a k detach (2 mM ATP) of 58.5 s⁻¹. The substance also had a Bell equation k0 (detachment rate at zero force) in assay [3] of 32.9 s⁻¹. This substance also came in with an Actin gliding velocity (in vitro gliding assay, cHMM held through S2Tag antibody, rhodamine-phalloidin labeled actin, 32 °C) in assay [4] of 1.6 µm/s. For the same substance, in assay [5], the actin reattachment rate in optical trap (fast) stood at 17 s⁻¹ and the actin reattachment rate in optical trap (slow) stood at 0.83 s⁻¹.
